Experimental data as given in article PMC11289387, “Structure of the MlaC-MlaD complex reveals molecular basis of periplasmic phospholipid transport” (Nature Communications, 2024).

Biological target: the molecule itself
Assay: cryo-EM structure; cardiolipin-loaded MlaD^32-183 with MlaC-apo, cross-linked with 0.1% glutaraldehyde, 0.8 mg/mL in 20 mM Tris pH 8.0, 150 mM NaCl; 1:6 map at 4.35 Å, 2:6 map at 4.38 Å

B1: periplasmic domain of E. coli MlaD (residues 32-183), MlaD^32-183 (domain or fragment, UniProt P64604 32-183, looked up)
chain: TSIRTEPTYTLYATFDNIGGLKARSPVSIGGVVVGRVADITLDPKTYLPRVTLEIEQRYNHIPDTSSLSIRTSGLLGEQYLALNVGFEDPELGTAILKDGDTIQDTKSAMVLEDLIGQFLYGSKGDDNKNSGDAPAAAPGNNETTEPVGTTK
notes: synthesised (Genscript), cloned in pET26b; No cleavage of the His tag is described; In the functional rows of the MlaC mutants the wild-type MlaD stood as part of MlaFEDB in acceptor proteoliposomes, not as this fragment; source: E. coli BL21(DE3), purified (Ni-NTA, Superdex 200); lipid removed with β-OG and loaded with cardiolipin where stated
  stoichiometry N: 6
